Test results from patent US20250109182A1 (KITE PHARMA, published 2025).
Values belong to the binder of their own block, whether it stands above or below them.

How the values were obtained:
[1] = target: TGF-β Receptor Type II (TGF-βRII), endogenous wild-type, in primary human T cells (human, UniProt P37173 23-567); assay: cell-based or functional assay
[2] = target: T1, recombinant human GPC3 (rhGPC3) fluorescently conjugated to DyLight 650 (human, UniProt P51654 25-559, limits assumed, fluorescently conjugated to DyLight 650); assay: flow cytometry; rhGPC3-DyLight 650 staining of CAR+ T cells
T1 construct: Soluble staining reagent for flow cytometry, diluted 1:200; also called Glypican-3
T1 sequence (P51654 25-559 limits assumed): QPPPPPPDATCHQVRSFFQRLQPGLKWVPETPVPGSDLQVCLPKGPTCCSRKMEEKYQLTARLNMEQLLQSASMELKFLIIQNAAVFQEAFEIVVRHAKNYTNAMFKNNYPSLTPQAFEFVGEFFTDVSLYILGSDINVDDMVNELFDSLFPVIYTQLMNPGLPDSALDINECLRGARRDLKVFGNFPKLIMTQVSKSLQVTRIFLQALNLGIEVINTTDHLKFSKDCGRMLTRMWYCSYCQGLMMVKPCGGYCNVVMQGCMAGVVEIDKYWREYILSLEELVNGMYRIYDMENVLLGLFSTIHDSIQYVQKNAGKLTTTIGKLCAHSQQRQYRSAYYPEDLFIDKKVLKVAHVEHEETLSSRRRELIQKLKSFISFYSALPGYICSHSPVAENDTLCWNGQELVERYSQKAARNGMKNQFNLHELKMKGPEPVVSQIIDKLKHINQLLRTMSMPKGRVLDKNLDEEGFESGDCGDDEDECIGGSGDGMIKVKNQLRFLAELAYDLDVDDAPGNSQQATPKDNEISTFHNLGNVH
Description: (§1) Similar to the previous trials, CD3⁺ cells were isolated from primary human peripheral blood mononuclear cells (PBMCs) and transduced with the GPC3 CAR constructs above in the presence of polybrene and at a multiplicity of infection of two, based on expression titer in Jurkat cells. At the end of manufacturing, cells were frozen down in Cryostor® CS5 and stored in liquid nitrogen until thawing. Upon thawing, cells were rested in T cell culture medium overnight with 100 UI/mL IL-2, washed, and stained with Live/Dead™ Violet diluted at 1:1000, recombinant human GPC3 (rhGPC3) fluorescently conjugated to DyLight™ 650 diluted at 1:200, and anti-CD3 BV650 at 1:100 in PBS for 30 min at 4° C. The DNA of a pellet of 1×10⁵ cells was extracted in QuickExtract™ Buffer, frozen, and used to measure average vector copy number (VCN) by droplet digital PCR quantifying frequency of integrated virus per cell. Percentage CAR+ cells are defined as percentage of cells staining with rhGPC3 amongst Live/Dead™ negative, CD3⁺ positive cells, and Mean Fluorescence Intensity (MFI) of CAR⁺, and Vector copy number (VCN) are given in the example. […] Construct CAR 1 also has higher MFI of CAR⁺ cells, which could indicate more efficient expression or higher affinity of the CAR to rhGPC3.

[3] = target: T1, recombinant human GPC3 (rhGPC3) …; assay: flow cytometry; transduced T cells stained with rhGPC3-DyLight 650 at 1:200; gated live CD3+
Description: as §1

Sequence of TGF-β Receptor Type II (TGF-βRII), endogenous wild-type, in primary human T cells (P37173 23-567): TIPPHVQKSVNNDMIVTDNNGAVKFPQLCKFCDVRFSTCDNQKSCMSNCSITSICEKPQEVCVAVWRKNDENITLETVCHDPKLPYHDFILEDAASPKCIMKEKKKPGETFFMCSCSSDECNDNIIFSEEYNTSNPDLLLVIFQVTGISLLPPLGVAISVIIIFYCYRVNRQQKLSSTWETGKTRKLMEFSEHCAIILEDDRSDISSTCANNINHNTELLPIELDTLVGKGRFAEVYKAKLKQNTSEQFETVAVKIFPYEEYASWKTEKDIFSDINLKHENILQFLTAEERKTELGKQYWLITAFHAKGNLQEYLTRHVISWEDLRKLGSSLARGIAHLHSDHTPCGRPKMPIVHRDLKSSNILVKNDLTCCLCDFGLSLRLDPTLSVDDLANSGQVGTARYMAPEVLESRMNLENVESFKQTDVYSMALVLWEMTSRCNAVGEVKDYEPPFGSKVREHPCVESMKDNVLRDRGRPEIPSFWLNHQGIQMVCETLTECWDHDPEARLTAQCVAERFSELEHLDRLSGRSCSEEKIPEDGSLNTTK

fold less induction of pSMAD2 and pSMAD3 versus PSMA CAR only, TGF-β1 stimulated T cells [1]: ~2 fold
fold less induction of pSMAD2 versus CD19 CAR only, TGF-β1 stimulated T cells [1]: ~4 fold
fold less induction of pSMAD2 versus GPC3 CAR only, 4-1BB co-stimulation, TGF-β1 stimulated T cells [1]: ~3 fold
fold less induction of pSMAD3 versus CD19 CAR only, TGF-β1 stimulated T cells [1]: ~2 fold
fold less induction of pSMAD3 versus GPC3 CAR only, 4-1BB co-stimulation, TGF-β1 stimulated T cells [1]: ~1.3 fold
B1: engineered, dominant-negative TGF-β receptor Type 1 (DN TGF-βRI) construct of SEQ ID NO: 10 (receptor)
chain: LQCFCHLCTKDNFTCVTDGLCFVSVTETTDKVIHNSMCIAEIDLIPRDRPFVCAPSSKTGSVTTTYCCNQDHCNKIELPTTVKSSPGLGPVELAAVIAGPVCFVCISLMLMVYIRVNRQ

MFI CAR + [2]: 21100 MFI
% CAR + (percentage of cells staining with rhGPC3) [3]: 93.4%
B2: Construct CAR 1 (GPC3 scFv + 4-1BB intracellular domain + CD3ζ intracellular domain), GPC3-CAR encoded by the codon-optimized sequence of SEQ ID NO: 51 (other)
chain: DIVMTQSPDSLAVSLGERATINCKSSQSLLYSSNQKNYLAWYQQKPGQPPKLLIYWASSRESGVPDRFSGSGSGTDFTLTISSLQAEDVAVYYCQQYYNYPLTFGQGTKLEIKGSTSGSGKPGSGEGSTKGEVQLVESGGGLVQPGGSLRLSCAASGFTFNKNAMNWVRQAPGKGLEWVGRIRNKTNNYATYYADSVKARFTISRDDSKNSLYLQMNSLKTEDTAVYYCVAGNSFAYWGQGTLVTVSSGSTTTPAPRPPTPAPTIASQPLSLRPEACRPAAGGAVHTRGLDFACDIYIWAPLAGTCGVLLLSLVITLYCKRGRKKLLYIFKQPFMRPVQTTQEEDGCSCRFPEEEEGGCELRVKFSRSADAPAYQQGQNQLYNELNLGRREEYDVLDKRRGRDPEMGGKPRRKNPQEGLYNELQKDKMAEAYSEIGMKGERRRGKGHDGLYQGLSTATKDTYDALHMQALPPR
notes: Chimeric antigen receptor expressed on transduced primary human CD3+ T cells; also called GPC3-CAR construct
